Data: patent US20130330346A1 (Novartis, published 2013)
Blank lines part the entries; values can stand above or below the binder they belong to. Ends that are not written are not given here.

Key:
[1] = biological target: T1, Human 1to19 peptide (human); test: ELISA, periplasmic extract on biotinylated peptide
T1 construct: First 19 N-terminal amino acids of human CXCR2, captured on neutravidin; also called human CXCR2 1 to19 peptide; 1-19 Nter peptide
T1 peptide: MEDFNMESDSFEDFWKGED-biotin
Experimental: In another setup, periplasmic extracts were analyzed for binding to human 1 to 19 peptide by ELISA. MaxiSorb plates (Nunc, 430341) were coated for two hours with neutravidin followed by one hour blocking (PBS, 1% casein). Then 100 nM biotinylated human 1 to 19 peptide was added to these plates for one hour (PBS, 0.1% casein, 0.05% tween20) followed by one hour incubation with 10-fold dilutions of periplasmic extracts. Unbound periplasmic extracts were washed away (PBS supplemented with 0.05% tween20) and bound Nanobodies were detected using mouse anti-myc (Roche, 11667149001) followed by rabbit anti-mouse-HRP conjugate (Dakocytomation, P0260). Table 8 summarizes the ratios of the binding signals of anti-CXCR2Nanobodies over an irrelevant control Nanobody.

[2] = biological target: T2, Human CXCR2 (human, UniProt P25025 1-360); test: FACS, periplasmic extract vs FMAT Blue Gro-α
T2 construct: Some cell lines carry an N-terminal 3xHA tag; also called hCXCR2; huCXCR2
T2 sequence: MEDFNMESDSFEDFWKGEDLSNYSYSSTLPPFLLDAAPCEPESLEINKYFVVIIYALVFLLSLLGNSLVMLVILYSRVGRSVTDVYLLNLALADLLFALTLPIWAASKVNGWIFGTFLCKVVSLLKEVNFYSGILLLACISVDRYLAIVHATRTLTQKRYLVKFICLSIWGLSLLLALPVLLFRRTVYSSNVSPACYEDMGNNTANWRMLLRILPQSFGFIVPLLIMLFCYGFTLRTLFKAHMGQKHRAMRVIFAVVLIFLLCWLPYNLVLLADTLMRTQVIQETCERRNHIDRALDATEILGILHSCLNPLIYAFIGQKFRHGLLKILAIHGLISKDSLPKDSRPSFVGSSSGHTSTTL
Experimental: Periplasmic extracts (as described above) were analyzed on FACS for competition with Gro-α in binding to human CXCR2. 2×10⁵ cells were incubated with a ½ dilution of periplasmic extracts in FACS buffer (PBS+10% fetal bovine serum (Sigma, F7524)) for 30 minutes at 4° C. Then, an equal volume of 6 nM of FMAT Blue-labeled human Gro-α in FACS buffer was added and incubation was continued for another 30 minutes at 4° C. in the dark. Cells were then washed three times in FACS buffer and finally resuspended in FACS buffer. Dead cells were stained with propidium iodide (Sigma, P4170). Samples were then analyzed on a FACSarray (BD Biosciences).

[3] = biological target: T3, Cynomolgus CXCR2 (cynomolgus, UniProt Q28519 3-353 (rhesus entry)); test: cell-based or functional assay
T3 chain: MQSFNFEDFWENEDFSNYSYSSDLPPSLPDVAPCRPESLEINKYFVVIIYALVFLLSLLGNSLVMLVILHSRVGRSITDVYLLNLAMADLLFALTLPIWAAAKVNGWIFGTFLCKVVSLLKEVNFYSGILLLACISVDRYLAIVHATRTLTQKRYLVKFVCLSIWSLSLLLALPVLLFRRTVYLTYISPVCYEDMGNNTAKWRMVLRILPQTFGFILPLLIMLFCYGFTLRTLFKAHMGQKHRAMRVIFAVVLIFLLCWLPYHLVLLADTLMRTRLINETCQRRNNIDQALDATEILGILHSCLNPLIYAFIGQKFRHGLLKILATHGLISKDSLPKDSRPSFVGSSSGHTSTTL

[4] = biological target: T2, Human CXCR2; test: cell-based or functional assay
[5] = biological target: T3, Cynomolgus CXCR2; test: FACS competition vs 3 nM FMAT-Blue Gro-α
Experimental: (§1) Multivalent anti-CXCR2Nanobodies were titrated against 3 nM FMAT-Blue-labeled Gro-α in the FACS ligand competition assay on human and cynomolgus CXCR2 (Table 14). On human CXCR2, blocking potencies range between double digit nM and sub-nM whereas on cynomolgus CXCR2, they range between single and double digit nM.

[6] = biological target: T2, Human CXCR2; test: FACS competition vs 3 nM FMAT-Blue Gro-α
Experimental: as §1

[7] = biological target: T2, Human CXCR2; test: cell-based or functional assay; remark: listed apart in the source
[8] = biological target: T3, Cynomolgus CXCR2; test: cell-based or functional assay
[9] = biological target: T2, Human CXCR2; test: cell-based or functional assay; remark: listed apart in the source

- ratio of binding signal relative to blank control [1]: 1.2 ratio
- FACS Gro-α competition (% inhibition) [2]: 55.8%
B1: 137A8 (VHH)
VHH: EVQLVESGGGLVQPGGSLRLSCAASGSTLAYYTVGWFRRAPGKEREGISCISSSDGSTYYADSVKGRFTISRDNAKNTVYLQMNSLKPEDTAVYYCAADRRTDCKKGRVGSGSWGQGTQVTVSS
notes: Tested as periplasmic extract only; also called 137A08; not shown: C-terminal c-myc tag and His6 tag coded by the vector

- ratio of binding signal relative to blank control [1]: 1 ratio
- FACS Gro-α competition (% inhibition) [2]: 78.5%
B2: 139A8 (VHH)
VHH: EVQLVESGGGLVQAGGSLRLSCAASGRSFSRSAMGWLRQAPGKEREFVAGISWGGDNSYYADSVKGRFTISRDNAKNTVSLQMNSLKPQDTAVYYCAARYRGGAAVAGWEYWGQGTQVTVSS
notes: Tested as periplasmic extract only; also called 139A08; not shown: C-terminal c-myc tag and His6 tag coded by the vector

- ratio of binding signal relative to blank control [1]: 1.7 ratio
- FACS Gro-α competition (% inhibition) [2]: 50.5%
B3: 139H2 (VHH)
VHH: EVQLVESGGGLVQAGGSLRLSCAASGRTFSNYAMGWFRQATGKEREFVAAINKSGGNTHYAGSVKGRFTISRDNAKNTVYLQMNSLKPRDTAVYYCAASRTNPKPDYWGQGTQVTVSS
notes: Tested as periplasmic extract only; also called 139H02; not shown: C-terminal c-myc tag and His6 tag coded by the vector

- FACS Gro-α competition (% inhibition) [2]: 53.5%
B4: 145C9 (VHH)
VHH: EVQLVESGGGLVQAGGSLRLSCAASGFTFDDYAIGWFRQAPGKERERVSCISGSDGSTYYADSVKGRFTISSDNAKNTVYLQMNNLKPEDTAVYYCAAYWGLTLRLWMPPHRYDYWGQGTQVTVSS
notes: Tested as periplasmic extract only; also called 145C09; not shown: C-terminal c-myc tag and His6 tag coded by the vector

- Cynomologus WBSC IC50 (rhGROα) [3]: 1.72 nM
- Human WBSC IC50 (rhGROα) [4]: 0.43 nM
- % inhibition of max [5]: 96%
- IC50 [5]: 3.8 nM
- % inhibition of max [6]: 98.5%
- IC50 [6]: 1.63 nM
- [35S]GTPγS % inhibition of max (GRO-α) [7]: 100%
- [35S]GTPγS IC50 (GRO-α) [7]: 1.38 nM
- FLIPR % inhibition of max [8]: 100%
- FLIPR IC50 (GRO-α induced calcium release) [8]: 17 nM
- FLIPR % inhibition of max [9]: 100%
- FLIPR IC50 (GRO-α induced calcium release) [9]: 21.9 nM
B5: CXCR20028 (other)
chain: EVQLVESGGGLVQPGGSLRLSCVASGSIVRINTMGWYRQTPGKQRELVADITSGGNINYIDAVKGRFTISRDNTKNTVYLQMNSLKPEDTAVYYCNAEIVVLVGVWTQRARTGNYWGQGTQVTVSSGGGGSGGGGSGGGGSGGGGSGGGGSGGGGSGGGGSEVQLVESGGGLVQAGGSLTLSCAVSGSTFRINTMGWYRRAPGKQRELVAARDRGGYINYVDSVKGRFTVSRDNAKPTMYLQMNSLKPEDTAVYYCHAGTQDRTGRNFDRWGQGTQVTVSS
notes: Biparatopic: two VHH joined by a GlySer linker; also called 97A9-35GS-54B12; 97A9-54B12; not shown: C-terminal c-myc tag and His6 tag coded by pAX100

- ratio of binding signal relative to blank control [1]: 0.8 ratio
- FACS Gro-α competition (% inhibition) [2]: 56.8%
B6: 139D5 (VHH)
VHH: EVKLVESGGGLVQAGGSLRLSCALSGRIGSINAMGWYRQVSGQQRELVAVSRSGGSTDIADSVKGRFTISRDNGKNTVYLQMDSLKPEDTAVYYCYAHTSSYSNWRVYNNDYWGQGTQVTVSS
notes: Tested as periplasmic extract only; also called 139D05; not shown: C-terminal c-myc tag and His6 tag coded by the vector
